{"source": "patent US20210162029A1", "binders": {"B1": {"name": "LEKTI Domain 6 (protein)", "chain": "ESGKATSYAELCSEYRKLVRNGKLACTRENDPIQGPDGKVHGNTCSMCEVFFQAEEEEKKKKEGKSRN"}}, "molecular_target": "T1, KLK14 (UniProt Q9P0G3)", "T1 sequence (looked up)": "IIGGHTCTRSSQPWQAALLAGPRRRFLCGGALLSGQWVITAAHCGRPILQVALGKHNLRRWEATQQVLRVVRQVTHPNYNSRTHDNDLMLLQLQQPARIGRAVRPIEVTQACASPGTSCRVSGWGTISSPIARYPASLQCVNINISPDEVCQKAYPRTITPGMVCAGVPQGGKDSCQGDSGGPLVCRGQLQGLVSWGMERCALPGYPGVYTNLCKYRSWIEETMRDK", "experiment": "cell-based or functional assay"}
{"binder": "B1", "values": [{"measurement": "% inhibition (mean) of KLK14 (30 nM) evoked FLIPR signal in TRPV1 cells; LEKTI D6 at 0.003 µM", "result": -4, "unit": "%"}, {"measurement": "% inhibition (mean) of KLK14 (30 nM) evoked FLIPR signal in TRPV1 cells; LEKTI D6 at 0.01 µM", "result": 21.6, "unit": "%"}, {"measurement": "% inhibition (mean) of KLK14 (30 nM) evoked FLIPR signal in TRPV1 cells; LEKTI D6 at 0.03 µM", "result": -11.1, "unit": "%"}, {"measurement": "% inhibition (mean) of KLK14 (30 nM) evoked FLIPR signal in TRPV1 cells; LEKTI D6 at 0.1 µM", "result": 12.4, "unit": "%"}, {"measurement": "% inhibition (mean) of KLK14 (30 nM) evoked FLIPR signal in TRPV1 cells; LEKTI D6 at 0.3 µM", "result": 16.8, "unit": "%"}, {"measurement": "% inhibition (mean) of KLK14 (30 nM) evoked FLIPR signal in TRPV1 cells; LEKTI D6 at 1 µM", "result": 46.9, "unit": "%"}, {"measurement": "% inhibition (mean) of KLK14 (30 nM) evoked FLIPR signal in TRPV1 cells; LEKTI D6 at 3 µM", "result": 56.4, "unit": "%"}, {"measurement": "% inhibition (mean) of KLK14 (30 nM) evoked FLIPR signal in TRPV1 cells; LEKTI D6 at 10 µM", "result": 39.3, "unit": "%"}, {"measurement": "% inhibition (mean) of KLK14 (30 nM) evoked FLIPR signal in TRPV4 cells; LEKTI D6 at 0.003 µM", "result": -24.1, "unit": "%"}, {"measurement": "% inhibition (mean) of KLK14 (30 nM) evoked FLIPR signal in TRPV4 cells; LEKTI D6 at 0.01 µM", "result": -11, "unit": "%"}, {"measurement": "% inhibition (mean) of KLK14 (30 nM) evoked FLIPR signal in TRPV4 cells; LEKTI D6 at 0.03 µM", "result": 9.9, "unit": "%"}, {"measurement": "% inhibition (mean) of KLK14 (30 nM) evoked FLIPR signal in TRPV4 cells; LEKTI D6 at 0.1 µM", "result": 6.4, "unit": "%"}, {"measurement": "% inhibition (mean) of KLK14 (30 nM) evoked FLIPR signal in TRPV4 cells; LEKTI D6 at 0.3 µM", "result": 1.5, "unit": "%"}, {"measurement": "% inhibition (mean) of KLK14 (30 nM) evoked FLIPR signal in TRPV4 cells; LEKTI D6 at 1 µM", "result": 6.3, "unit": "%"}, {"measurement": "% inhibition (mean) of KLK14 (30 nM) evoked FLIPR signal in TRPV4 cells; LEKTI D6 at 3 µM", "result": 26.7, "unit": "%"}, {"measurement": "% inhibition (mean) of KLK14 (30 nM) evoked FLIPR signal in TRPV4 cells; LEKTI D6 at 10 µM", "result": 73, "unit": "%"}]}
